From the nanobody polyreactivity screen of Harvey et al. (2022)

Test: yeast display, Sf9 membrane polyspecificity reagent, FACS + sequencing; frameworks hold sequencing errors
Method in brief: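 Synthetic nanobody libraries on Saccharomyces cerevisiae BJ5465 were galactose-induced for 36–48 hours, stained 1 hour at 4 °C with 10% biotinylated, detergent-solubilized Sf9 membrane reagent and enriched on streptavidin microbeads. FACS then separated cells into low and high (top ~1%) gates by anti-HA (expression) and streptavidin (reagent binding) fluorescence. Genes were colony-PCR amplified, MiSeq 2 × 250 sequenced and CDR-length filtered. A clone's polyreactivity label is that of its gate of origin.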

Sequence | polyreactivity (PSR sort gate)
QVQLVESGGGLFQAGGSLRLSCAASGSIFRVYGMGWYRQAPGKERDLVAAITWSGGSTYYADSVKGRFTISRDNAKNTLYVQINSLKPDATAVYYCAARARPRYYRPPYDYWGQGTQVTVSS | high polyreactivity
QVQLVESGGGLVQAGASLRLSCAASGRTFRYYAMGWYRQEPGKERELVAAITSGGSTYYADSVKGRFTISRDNAKKTVYLQMNSLKPEVTAVYYCAAVPAGLWGTYPQFRYGYWGQGTQVTVSS | high polyreactivity
QVQLVESGGGLVQAGGSLRLSCAASGRTFAYYAMGWYRQAPGTERELVATINSAGCTYYADSVKGRFTISRDNAKNTVYLQMNSLKPEDTAVYYCNAAYKSQVRYRRYIYWGQGTQVTVSS | high polyreactivity
QVQLVESGGGLVQPGGSLRLSCAASGFIFGYYTMGWYRQAPGKERELVAVITSNGARTYYADSVKGRFTISRDNAKNTVYLQMNSLKPEDTAVYYCNAYRLSVSVGYDYWGQGTQVTVSS | high polyreactivity
QVQLVESGGGLVQAGGSLRLSCAASGFIFRYYAMGWYRQAPGKERELVAAISGSGGGTYYADSVKGRFTISRDNAKNTVYLQMNSLKPEDTAVYYCAAGSTSGYFRYYYWGQGSQVTVSS | high polyreactivity
QVQLVESGGGLVQAGGSLRLSCAASGSNLATYTMGWYRQEPGKERELVAAISFGGSTYYADSVKGRFTISRDNAKNTDYLQMNSLKPEDTAVYYCAVYGDSYWGAYYYSDGYWGQGTQVTVSS | low polyreactivity
QVQLVESGGGLVQAGGSLRLSFAASGRIFAYYAMGCYRQAPGKERELVASISRSGGRTYYADSVKGRFTISRDNAKNTVYLQMNSLKPEDTAVYYFNRAVWFKSTVDYWGQGTQVTVSS | high polyreactivity
QVQLVESGGGLVQAGGSLRLRCAASGFNFSFDNAMGWYRQAPGKERELVAAISSGTTTHYADSVKGRFTISRDNAKNTVYLQMNSLKPEDTAVYYCAADTAQQSGYEYDYWGQGTQVTVSS | low polyreactivity
QVQLVESGGGLVQAGGSLRLSCAASGSIFYFNDMGWYRQAPGKEREFVARITRSGSSTSYADSVKGRFTISRDNAKNTVYLQMNSLKPEDTAVYYCAARYRRYSTSRYYYWGQGTQVTVSS | high polyreactivity
QDQLVESGGGLVQAGGSLRLSCAASGSIFPSNTMGWYRQAPGKERELVAAITGSGGSTYYADSVKGRFTISRDNAKNTVYLQMNSLKPEDTAVYYCAARYRVDGVKYGYWGQGTQVTVSS | high polyreactivity
QVQLVESGGGLVQAGGSLRLSCAASGFIFSRYVMGWYRQAPGKEMELVAVISYRGGSTYYADSVKGRFTISRDNAKNTVYLQMNSLKPEDTAVYYCNADTIPDGEDRYDYWCQGTQVTVSS | low polyreactivity
QVQLVESGGGLVQAGGSLRLSCAASGSIFRSNGMGWYREAPGKERELVAAITSSGGSTYYADTVKGRFTISRDNAKNTVYLHMNSLKPEDTAVYYCAKRWNWSYNYWGQGTQVTVSS | high polyreactivity
QVQLVESGGGLVQAGGILRLICAASGLTFYRYAMGWYRQAPGKERELVAAINSRGSTYADSVKGRFTISRDNAKNTVYFQMNSLKPEDSAVYYCAARGRYRLYGYWGQVTQVTVSS | high polyreactivity
QVQLVESGGGLVQAGGSLRLSCAASGRIFHYYAMGWYRQAPGKEWELVAAISTSGGSTYYADSVKGRFTISRDNANNTVYIQMNSLKPEDTAVYYCAAVLPRYRRFDYWGQGTQVTVSS | high polyreactivity
QVQLVESGGGLVQAGGSLRLICAASGRTSGGNGMGWYRQAPGKERELVAAITWDGDSTYADSVKGRFTISRDNAKNTDYFQMNSLKPEDTAVYYCAAGVYQSDYYYWGQGTQVTVSS | low polyreactivity
QVQLVESGGGLVQAGGSLRLSCAASGSIFRYYTMGWYRQAPGKERELVAAISWSGGSTYYADSVKGRFTISRDNAKNTVYLQMNSLKPEDTPVYYCNAVSFAYNPYSGTYDYRGQGTQVTVSS | high polyreactivity
QVQLVESGGGLVQAGGSLRLSCAASGSIFLSYAMGWYRQAPGKERELVAAITGSGGSTYYADSVKGRFTISRDNAKNTVYLQMNSLKPEDTAVYYCARRRHHVIWYGYWGQGTQVTVSS | low polyreactivity
QVQLVESGGCLFQAGASLRLSCAASGRILAYYAMGWYRQAPGKERELVAAITSGGRTYYADSVKGRFTISRDNAKNTVYLQMNSLKPEDTAVYYCNRVTGYDSGDGYWGQGTQVTVSS | high polyreactivity
QVQLVESGGGLVQAGGSLRLSCAASGSIFDDYAMGWYRQAPGKERELVAAITSGGSTYYADSVKGRFTISRDNAKNTVYLQMNSLKPEDTAVYYCAAPENKSDEYDYWGQGTQVTVSS | low polyreactivity
QVQLVESGGGLVQAGGSLRLSCAASGFIFRPYAMGSYRQAPGKERELVAAISYGDGITYYADSVKGRFTISRDNAKNTVYLQMNSLKPEDTAVYYCAAEYVSHFSGYRYDYWGQGTQVTVSS | low polyreactivity
QVQLVESGGGLVQAGGSLRLSCAASGRIFSRNALGWYRQAPGKERELVAAISWRGGRTYYAVSVKGRFAISRDNAKNTVYLQMNSLKPEDTAVYYCNAVSFGRARHGGPVYGYDYWGQGTQVTVSS | high polyreactivity
QVQLVESGGGLVQAGGSLRLSCAASGRTIDYNGMGSYRQAPGKERELVAVISSSGGSTFYADSVKGRFTISRDNAKNTVYLQMNSLKPVDTAVYYCAADFIVAYTLHGSYDYWGQGTQVTVSS | low polyreactivity

Sequence | polyreactivity (PSR sort gate)
QVQLVESGGGLVQAGGSLRLSCAASGSIYTRYPMGWYRQAPGKERELVAAISINGGSTYYADSVKGRFTISRDNAKNTVYLHMNSLKPEDTAVYYCARHYYRWNNFLYLSGYYWGQGSQVTVSS | high polyreactivity
QVQLVESGGGFVQAGGSLRLSCAASGSTFGPYAMGWSSQAPGKDRELVAGISSGGSTYYADSVKGRFTISRDNAKNTVYLQMNSLKPEDTAVYYCATRYLYRGYSYFAYDYWGQGTQVTVSS | low polyreactivity
QVQLVESGGGLVQAGGSLRLSCAASGRIFVGYAMGWYRQAPGKERELVAAISRGGSTNYADSVKGRFTISRDNAKNTVYLQMNSLKPDDTAVYYCAKTYRTRWWGNGGDYWGQGTQVTVSS | high polyreactivity
QVQLVESGGGLVQAGGSLRLSCAASGSTFSLYDMGWYRQAPGKERELVAAISSSGGGTYYADSVKGRFTISRDNAKKTVYLQMNSLKPEDTAVYYCAARFYYYPTKYDSWGQGTQVTVSS | high polyreactivity
QVQLVESGGGLVQAGGSLRLSCAASGFTFWLYAMGWYRQAPGKERELVATISWSGGSTYYADSVKGRFTISRDNAKNTVYLQMNSLKPEDTAVYYCAARLNYGNKYDYWGQGTQVTVSS | high polyreactivity
QVQLVESGGGLVQAGGSLRLSCAASGLTFSRYAMGWYRQAPGKERELVAAITWSGSSTYYADSVKGRFTISRDNAKNTVYLQMNSLKPEDTAVYYCAARYGYSRGPYYRSDYWGQGTQVTVSS | high polyreactivity
QVQLVESGGGLVQAGGSLRLSCAASGSIFPIYTMGWYRQAPGKERELVAAITYNAGSTYYADSVKGRFTISRDNAKNTVYLQMNSLKPEDTAVYYCAADRYYDRTFPGYDYWGQGTQVTVSS | low polyreactivity
QVQLVETGGGLVQAGGSLRLSCAASGRTLWSYVMGWYIQAPGKERELVAAITSGGTTYYADSVKGRFTISRDNAKNTFYFQMNSLKPEDTAVYSCNVYTKFVYAYDYWGQGTQVTVSS | high polyreactivity
QVKLLESGGGLVQSGGSLRLSCAAYAIIFRWYTMGGYRQAPGKERQLVAAISTSTGSTYYADSVKGRFTISRDNAKNTVYLQMNSLKPEDTAVYYCAADYAYWNYESYYWGQGTQVTVSS | high polyreactivity
QVQLVESGGGLVQAGGSLRLSCAASGSTFRFNAMGWYRQAPGKEREFVAAISTSGGSTYYADSVKGRFTISRDNAKNTVYLQMNSLKPEDTAVYYCATRRRIRSSFYYDNDYWGQGTQVTVSS | high polyreactivity
QVQLVESGGGLVQAGGRLRLTCAASGRIFFWYVMGWYRQATGKERELVAAISSGGRTYYADAVKGRFTISRDNAKNTVYLQMNSLKPEDTAVYYCNVEEYHVRADIGYSNYGYWGQGTQVTVSS | low polyreactivity
QVQLVESGGGLVQAGGSLRLSCAASGRTIRYYAMGWYRQAPGKERELVAAITSGGSTYYADSVKGRFTISRDNAKNTVYLQMNSLKPEDTAVYYCAAARYEPFIYDYGYWGQGTQVTVSS | low polyreactivity
QVQLVESGGGLVQAGGSLRLSCAASGLTFWYYAMGWYRQAPGKERELVAAISFSGGRTYYADSVKGRFTISRDNAKYTVYLQMNSLKPEDTAVYYCNKATWYPFWYAPSYDYWGQGTQVTVSS | high polyreactivity
QVQLVESGGGLVQAGGSLRLSCAASGSIFSRYTMGWYRQPPGKERELVAAITSSGGRTYYADSVKGRFRISRDNAKNTVYLQLNSLKPVVTAVYYCAARIQKQQGYGYWGQGTQVTVSS | high polyreactivity
QVQLVESGAGLVQAGGRLRLSCAPSGSTFIYNAMGWYRQAPGKERELVASITGGTSTNYADSVKGRFTISRDNAKNTVYLQMNSLKPEDTAVYYCAAVWVWGEYDYWGQGTQVTVSS | low polyreactivity
QVQLVESGGGLVQAGGSLRLSCAASGIIFGGYAMGWYRQAPGKERELVASITYDGGSTSYEDSVKGRFTISRDNAKNTVYLQMNSLKPEDTAVYYCNAELFSVNGYDYWGQGTQVTVSS | low polyreactivity
QVQLEESGGGLVQAGGRLRLSCAASGGTFRNNAMGWDRQAPGKEREVVAAISSSGTSTYYADSVKGRFTISRDNAKNTVYLQMNSLKPEDTAVYYCNADALGYPWWDHMDYWGQGTQVTVSS | low polyreactivity
QVQLVESGGGLVQAGGSLRLSCAASGRIFFIYAMGWYRQAPGKERELVAGINRTGGSTYYADSVKGRFTISRDNAKNTVYLQMNSLKPEDTAVYYCAAVSYYASDYRYDYWGQGTQVTVSS | low polyreactivity
QVQLGESGGGLVQAGGSLRLSCAASGRIFNVNVMGWYRQAPGKDMELVAAITSGGSTNYADSVKGRFTISRDNAKNTVYLQMNSLKPEDTAVYYCAKDYQYGFGEYPYDYWGQGTQVTVSS | low polyreactivity
QVQLVESWGGLVQAGGSRRLSCDASGRTFVTNAMGWYRQARGKERELVAAISGTGGSTYYADSVKGRFTISRDNAKNTVFLHMNRLKPEDTAVYSWAADTYIYGLEYDYWGQGTQVTVSS | low polyreactivity
QVQLVESGVGLVQAGGSLRLSCAASGRIFHYNAMGWYRQAPGKERELVAAISTGGSTNYADSVKGRFTISRDNAKNTVYLQMNSLKPEDTAVYYCAADRTLSYEYWGQGTQVTVSS | low polyreactivity
